Reference: publication PMC314469, “Protein Interaction Networks by Proteome Peptide Scanning” (PLoS Biology, 2004)

T1: Yfr024 SH3 (LSB3_YEAST), P43603
T1 chain: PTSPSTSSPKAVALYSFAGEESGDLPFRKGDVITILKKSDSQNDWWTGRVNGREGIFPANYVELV

T2: Rvs167 SH3 (RV167_YEAST), P39743
T2 chain: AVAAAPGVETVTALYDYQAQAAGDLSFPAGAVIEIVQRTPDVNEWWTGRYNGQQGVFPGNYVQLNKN

T3: Boi1 SH3 (BOI1_YEAST), P38041
T3 chain: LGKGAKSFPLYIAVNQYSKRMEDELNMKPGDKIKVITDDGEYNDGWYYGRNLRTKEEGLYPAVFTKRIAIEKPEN

T4: Boi2 SH3 (BOI2_YEAST), P39969
T4 chain: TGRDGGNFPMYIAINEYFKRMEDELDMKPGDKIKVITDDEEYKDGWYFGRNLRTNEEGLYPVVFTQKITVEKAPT

T5: Yhr016c SH3 (YSC84_YEAST), P32793
T5 chain: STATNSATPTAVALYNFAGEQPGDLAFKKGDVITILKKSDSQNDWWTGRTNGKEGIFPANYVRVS


Key:
Assay in all cases: SPOT array
[1] = molecular target: T1, Yfr024 SH3 (LSB3_YEAST), P43603
[2] = molecular target: T2, Rvs167 SH3 (RV167_YEAST), P39743
[3] = molecular target: T3, Boi1 SH3 (BOI1_YEAST), P38041
[4] = molecular target: T4, Boi2 SH3 (BOI2_YEAST), P39969
[5] = molecular target: T5, Yhr016c SH3 (YSC84_YEAST), P32793

Binder | normalised SPOT signal, Boehringer light units (BLU); mean over the file's lines of this peptide [1] | normalised SPOT signal, Boehringer light units (BLU); mean over the file's lines of this peptide [2] | normalised SPOT signal, Boehringer light units (BLU); mean over the file's lines of this peptide [3] | normalised SPOT signal, Boehringer light units (BLU); mean over the file's lines of this peptide [4] | normalised SPOT signal, Boehringer light units (BLU); mean over the file's lines of this peptide [5]
PVGPKVPAKEPSPK [YEL043W 874-887] | 381 | 30.7 | 88 | 5.8 | 48.6
QAHPPKPKRREGDI [YKR050W 402-415] | 9260 | 41.1 | 133 | 38.2 | 740
PVDPTTPVKLGPGI [YOL142W 12-25] | -0 | 19 | 40.5 | 21.4 | 179
QDSPDMPEKESVYV [YER179W 310-323] | 26.9 | 4.7 | 51.6 | 42.6 | 0
PVYPSLPERSKVIL [YGR099W 44-57] | 24100 | 4000 | 40.1 | 34 | 21100

The next lines start with the values.

normalised SPOT signal, Boehringer light units (BLU); mean over the file's lines of this peptide [1] | normalised SPOT signal, Boehringer light units (BLU); mean over the file's lines of this peptide [2] | normalised SPOT signal, Boehringer light units (BLU); mean over the file's lines of this peptide [3] | normalised SPOT signal, Boehringer light units (BLU); mean over the file's lines of this peptide [4] | normalised SPOT signal, Boehringer light units (BLU); mean over the file's lines of this peptide [5] | Binder
8330 | 944 | 36.2 | 31.1 | 16000 | PYPPSLPSRDLYEV [YLL028W 113-126]
8.2 | 40.7 | 78.3 | 10.5 | 46.6 | QAAPRNPNKDATIA [YOR363C 59-72]
929 | 99.4 | 78 | 28.6 | 7.1 | QEKPLTPLKYTKLI [YHL025W 160-173]
15200 | 625 | 4800 | 246 | 7820 | QETPIIPKRIIHYS [YLR030W 11-24]
